Publication PMC2175354

Legend:
Experiment in all cases: EMSA
MyoD ΔR1R2R3 = MyoD ΔR1R2R3 (Mus musculus, UniProt P10085 1-318, del102-104;del110-112;del119-121)
MyoD ΔR2R3 = MyoD ΔR2R3 (Mus musculus, UniProt P10085 1-318, del110-112;del119-121)
[1] = target: MyoD Δ3-56 (activation region deleted) (Mus musculus, UniProt P10085 1-318, del3-56)
MyoD ΔR3 = MyoD ΔR3 (Mus musculus, UniProt P10085 1-318, del119-121)
MyoD Δ102-114 = MyoD Δ102-114 (UniProt P10085 1-318, del102-114)
MyoD bHLH domain = MyoD bHLH domain (UniProt P10085 102-162)
[2] = target: MyoD Δ1-93 (activation and C/H regions deleted) (Mus musculus, UniProt P10085 94-318, del1-93)
MyoD ΔR1R3 = MyoD ΔR1R3 (Mus musculus, UniProt P10085 1-318, del102-104;del119-121)
MyoD R111C = MyoD R111C (Mus musculus, UniProt P10085 1-318, R111C)
MyoD full-length = MyoD full-length (Mus musculus, UniProt P10085 1-318)
[3] = target: MyoD Δ1-121 (activation, C/H and basic regions deleted) (Mus musculus, UniProt P10085 122-318, del1-121)

B1: E-box DNA (dsDNA)
DNA 1: TCGATCCCCCAACACCTGCTGCCTGA
DNA 2: TCAGGCAGCAGGTGTTGGGGGATCGA
Does B1 bind (MyoD ΔR1R2R3)?
Result: no binding

Does B1 bind (MyoD ΔR2R3)?
Result: no binding

Does B1 bind [1]?
Result: binds

Does B1 bind (MyoD ΔR3)?
Result: no binding

Does B1 bind (MyoD Δ102-114)?
Result: no binding

Does B1 bind (MyoD bHLH domain)?
Result: binds

Does B1 bind [2]?
Result: binds

Does B1 bind (MyoD ΔR1R3)?
Result: no binding

Does B1 bind (MyoD R111C)?
Result: no binding

Does B1 bind (MyoD full-length)?
Result: binds

Does B1 bind [3]?
Result: no binding
